1 substance from article PMC9115778 can be followed below.

pKd: −log10 of the molar value.

Experiment [1] has as its target human IR L1-CR-L2/α-CT domains (human) (UniProt P06213). The experiment in a line: ITC.
For experiment [2], the target named is human IR FnIII-1 domain (residues 460-596; C468A, C524A, DFR496-498AAA) (human) (UniProt P06213). The experiment in a line: ITC. On the technique in general: ITC needs no label: the signal is the heat of the interaction.

In general, pKd refers to the Kd on a negative log10 scale, so that one unit is a factor of ten. Read a high pKd as a low Kd. Turning to “insulin WT (ΔB30; desB30 human insulin) (ligand)”, the pKd in experiment [1] was 7.05; in experiment [2], 6.12.
